Experimental findings from patent US20110269680A1, “GLP-1 ANALOGS AND USES THEREOF” (PANACEA BIOTEC LIMITED, priority 2008, published 2011) are described below.

This experiment addresses GLP-1 receptor. Briefly: cell-based or functional assay.

“GLP-1(7-37) parent (from UniProt P01275 98-128) (peptide)”: the EC50, Receptor Functional assay (intracellular cAMP in CHO/GLP-1R cells) was 0.0503 nM.
